Assays:
Assay in all cases: flow cytometry on cells displaying the construct
[1] = biological target: T1, CID1881 (human-chicken GUCY2c chimera) (human/chicken)
T1 chain: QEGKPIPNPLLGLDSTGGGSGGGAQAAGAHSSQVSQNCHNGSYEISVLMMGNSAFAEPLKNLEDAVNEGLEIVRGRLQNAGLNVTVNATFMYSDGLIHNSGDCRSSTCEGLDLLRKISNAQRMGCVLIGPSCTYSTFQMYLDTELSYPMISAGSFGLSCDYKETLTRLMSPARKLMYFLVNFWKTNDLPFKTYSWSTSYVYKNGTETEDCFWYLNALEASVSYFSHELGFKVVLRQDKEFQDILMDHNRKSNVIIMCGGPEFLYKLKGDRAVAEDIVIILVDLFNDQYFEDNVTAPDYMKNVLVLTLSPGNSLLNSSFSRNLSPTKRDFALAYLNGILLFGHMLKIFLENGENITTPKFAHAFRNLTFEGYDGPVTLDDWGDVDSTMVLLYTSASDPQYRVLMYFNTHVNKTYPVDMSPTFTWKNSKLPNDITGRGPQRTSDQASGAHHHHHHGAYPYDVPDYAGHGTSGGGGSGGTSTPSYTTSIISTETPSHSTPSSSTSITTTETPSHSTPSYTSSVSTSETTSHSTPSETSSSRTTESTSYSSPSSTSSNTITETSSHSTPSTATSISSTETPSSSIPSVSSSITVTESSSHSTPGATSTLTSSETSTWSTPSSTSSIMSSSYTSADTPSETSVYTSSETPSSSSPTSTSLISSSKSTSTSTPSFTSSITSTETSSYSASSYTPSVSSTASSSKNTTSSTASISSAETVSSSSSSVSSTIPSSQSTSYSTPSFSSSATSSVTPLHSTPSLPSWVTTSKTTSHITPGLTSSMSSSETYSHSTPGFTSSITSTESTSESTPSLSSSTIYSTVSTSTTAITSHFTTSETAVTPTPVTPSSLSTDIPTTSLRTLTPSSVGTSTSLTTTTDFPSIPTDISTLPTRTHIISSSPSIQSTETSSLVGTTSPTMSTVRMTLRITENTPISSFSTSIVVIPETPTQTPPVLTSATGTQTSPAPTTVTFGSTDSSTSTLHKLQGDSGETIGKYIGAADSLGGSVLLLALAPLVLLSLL
Description: (§1) Cells were then washed three times with PBS+0.5% BSA buffer. […] Cells were washed three times with PBS+0.5% BSA buffer and then analyzed on a flow cytometer.
(§2) MFI (median fluorescence intensity) of anti-GUCY2c antibody binding to the cells was normalized to expression on cell surface measured by MFI of anti-tag antibodies. All the cells expressed V5 and HA on the cell surface for expression normalization.

[2] = biological target: T2, CID1876 (human-chicken GUCY2c chimera) (human/chicken)
T2 chain: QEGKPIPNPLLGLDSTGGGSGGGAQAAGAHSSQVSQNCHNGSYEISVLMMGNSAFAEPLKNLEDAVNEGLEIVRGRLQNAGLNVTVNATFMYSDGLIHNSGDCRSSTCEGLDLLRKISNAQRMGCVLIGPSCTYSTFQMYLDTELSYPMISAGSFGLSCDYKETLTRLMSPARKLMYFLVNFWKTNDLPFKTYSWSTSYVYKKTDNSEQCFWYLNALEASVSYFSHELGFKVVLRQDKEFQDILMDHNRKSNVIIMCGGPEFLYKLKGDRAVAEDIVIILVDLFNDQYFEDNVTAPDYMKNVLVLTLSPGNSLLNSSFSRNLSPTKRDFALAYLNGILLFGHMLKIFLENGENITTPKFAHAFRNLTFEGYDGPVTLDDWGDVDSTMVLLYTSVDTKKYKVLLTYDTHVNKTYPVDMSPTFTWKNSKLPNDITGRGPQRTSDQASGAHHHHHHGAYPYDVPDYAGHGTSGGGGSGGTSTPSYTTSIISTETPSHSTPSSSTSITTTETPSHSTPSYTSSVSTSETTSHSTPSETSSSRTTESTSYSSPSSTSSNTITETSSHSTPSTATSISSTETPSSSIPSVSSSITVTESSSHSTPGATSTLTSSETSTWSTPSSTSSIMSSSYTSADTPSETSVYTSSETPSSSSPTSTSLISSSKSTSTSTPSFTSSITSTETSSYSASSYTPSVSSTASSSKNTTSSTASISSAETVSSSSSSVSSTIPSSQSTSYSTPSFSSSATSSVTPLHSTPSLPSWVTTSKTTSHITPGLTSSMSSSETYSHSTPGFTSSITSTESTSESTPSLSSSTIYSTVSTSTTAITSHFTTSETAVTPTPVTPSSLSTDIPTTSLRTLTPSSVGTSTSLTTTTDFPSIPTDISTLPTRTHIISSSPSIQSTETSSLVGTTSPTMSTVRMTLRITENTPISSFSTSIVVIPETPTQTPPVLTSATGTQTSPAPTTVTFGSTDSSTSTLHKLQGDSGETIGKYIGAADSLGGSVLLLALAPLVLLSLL
Description: as §1, §2

[3] = biological target: T3, CID1880 (human-chicken GUCY2c chimera) (human/chicken)
T3 chain: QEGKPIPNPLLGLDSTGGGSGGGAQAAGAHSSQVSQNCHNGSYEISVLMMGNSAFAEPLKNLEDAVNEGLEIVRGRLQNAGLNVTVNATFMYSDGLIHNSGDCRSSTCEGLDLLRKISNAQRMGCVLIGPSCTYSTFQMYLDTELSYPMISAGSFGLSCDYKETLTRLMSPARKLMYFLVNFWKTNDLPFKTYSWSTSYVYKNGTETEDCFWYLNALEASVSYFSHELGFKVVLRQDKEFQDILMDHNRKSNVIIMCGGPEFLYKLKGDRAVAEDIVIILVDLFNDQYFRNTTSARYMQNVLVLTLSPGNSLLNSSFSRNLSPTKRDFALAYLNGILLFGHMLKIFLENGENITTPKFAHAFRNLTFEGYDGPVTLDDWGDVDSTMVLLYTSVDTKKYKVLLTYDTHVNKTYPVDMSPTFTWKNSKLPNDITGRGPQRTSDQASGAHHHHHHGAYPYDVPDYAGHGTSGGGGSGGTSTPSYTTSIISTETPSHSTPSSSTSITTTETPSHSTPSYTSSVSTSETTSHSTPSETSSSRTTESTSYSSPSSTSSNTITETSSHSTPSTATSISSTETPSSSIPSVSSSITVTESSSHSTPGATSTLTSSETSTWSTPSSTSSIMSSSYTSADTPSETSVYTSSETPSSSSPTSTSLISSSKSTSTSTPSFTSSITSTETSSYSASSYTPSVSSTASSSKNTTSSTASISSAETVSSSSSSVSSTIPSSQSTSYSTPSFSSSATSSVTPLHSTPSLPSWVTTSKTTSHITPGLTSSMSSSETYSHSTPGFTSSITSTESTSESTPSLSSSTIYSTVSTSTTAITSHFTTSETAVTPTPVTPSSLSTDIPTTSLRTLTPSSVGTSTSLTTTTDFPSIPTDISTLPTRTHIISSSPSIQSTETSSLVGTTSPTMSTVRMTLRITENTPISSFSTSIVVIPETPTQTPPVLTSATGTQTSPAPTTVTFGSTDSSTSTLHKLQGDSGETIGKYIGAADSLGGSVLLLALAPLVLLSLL
Description: as §1, §2

[4] = biological target: CID1950 (human GUCY2c point mutant) (human)
Description: as §1, §2

Measured: binding result

B1: GUCY2C-1608 (bispecific antibody)
chain 1: DIQLTQSPSSLSASVGDRVTITCRASESVDYYGSSLLQWYQQKPGKAPKLLIYAASKLASGVPSRFSGSGSGTDFTLTISSLQPEDFATYYCQQTRKAYTFGQGTKLEIKGGGSGGGGEVQLVESGGGLVQPGGSLRLSCAASGFTFSDYYMTWVRQAPGKGLEWVAFIRNQARGYTSDHNPSVKGRFTISRDNAKNSLYLQMNSLRAEDTAVYYCARDRPSYYVLDYWGQGTTVTVSSGCPPCPAPEAAGAPSVFLFPPKPKDTLMISRTPEVTCVVVDVSHEDPEVKFNWYVDGVEVHNAKTKPREEQYNSTYRVVSVLTVLHQDWLNGKEYKCKVSNKALPAPIEKTISKAKGQPREPQVCTLPPSREEMTKNQVSLWCLVKGFYPSDIAVEWESNGQPENNYKTTPPVLDSDGSFFLYSKLTVDKSRWQQGNVFSCSVMHEALHNHYTQKSLSLSPG
chain 2: DIQMTQSPSSLSASVGDRVTITCTSSQSLFNVRSQKNYLAWYQQKPGKAPKLLIYWASTRESGVPSRFSGSGSGTDFTLTISSLQPEDFATYYCKQSYDLFTFGGGTKVEIKGGGGSGGGGEVQLVESGGGLVQPGGSLRLSCAASGFTFSSYWMHWVRQAPGKGLEWIGEIKPSNELTNVHEKFKDRFTISVDKAKNSAYLQMNSLRAEDTAVYYCTRTITTTEGYWFFDVWGQGTLVTVSSGCPPCPAPEAAGAPSVFLFPPKPKDTLMISRTPEVTCVVVDVSHEDPEVKFNWYVDGVEVHNAKTKPREEQYNSTYRVVSVLTVLHQDWLNGKEYKCKVSNKALPAPIEKTISKAKGQPREPQVYTLPPCREEMTKNQVSLSCAVKGFYPSDIAVEWESNGQPENNYKTTPPVLDSDGSFFLVSKLTVDKSRWQQGNVFSCSVMHEALHNHYTQKSLSLSPG
notes: also called GUCY2c CD3 bispecific
binds: [1] | [2] | [3] | [4]

Source: patent US20230340151A1 (Pfizer, published 2023)
